Assay: yeast display, Sf9 membrane polyspecificity reagent, FACS + sequencing; frameworks hold sequencing errors
Method in brief: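 After 36–48 hours of galactose induction, yeast (Saccharomyces cerevisiae BJ5465) displaying a synthetic nanobody library were stained at 4 °C for 1 hour with 10% biotinylated, detergent-solubilized Sf9 membrane reagent. Streptavidin microbeads enriched the stained cells before FACS sorting into low and high (top ~1%) gates on anti-HA and streptavidin fluorescence. Each clone's polyreactivity label reflects its gate of origin.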

In the case of “QVQLVESGGGLVQAGGSLRLSCAASGSIFDYYTMGWYRQAPGKERELVASITRDGTSTYYADSVKGRFTISRDNAKNTVYLQMNSLKPEDTAVYYCAAERYGFTYSFYYWGQGTQVTVSS”, the “polyreactivity (PSR sort gate)” value is reported as “low polyreactivity”.

In the case of “QVQLVESGGGLVQAGGSLRLSCAASGSIFDYYVMGWYRQSPGKERELVAAISLSGGSTYYADSVKGRFTISRDNAKNTVYLQMNSLKPEDTAVYYCNADSQWYDYDYWGQGTQVTVSS”, the “polyreactivity (PSR sort gate)” value is reported as “high polyreactivity”.

For “QVQLVESGGGLVQAGGSLRLSCAASGSIFEGNAMGWYRQAPGKERELVAAISTTGGITYYADSVKGRFTISRDNAKNTVFLQMNSLKPEDTAVYYCAADPSQPRIDSSNYDYWGQGTQVTLSS”, the “polyreactivity (PSR sort gate)” value was “low polyreactivity”.

With “QVQLVESGGGLVQAGGSLRLSCAASGSIFEGNGMGRYRQAPGKERELVAAITFRSGSTYYADSVKGRFTISRDNAKNTVYLQMNSLKPEDTAVYYCAADEYYQVSAYDYWGQGTQVNVSS” the “polyreactivity (PSR sort gate)” value was “low polyreactivity”.

In the case of “QVQLVESGGGLVQAGGSLRLSCAASGSIFEGNTMGWYRQAPGKERELVASISSTANTYYADSVKGRFTLSRDNAKKNVYLQMNSLKPEDTAVYYCNVARYFLVPVVDDNYWGQGTQVTVSS”, the “polyreactivity (PSR sort gate)” value is reported as “low polyreactivity”.

In the case of “QVQLVESGGGLVQAGGSLRLSCAASGSIFEGYVMGWYRQAPGKERELVATISFSGGSTYYADSVKGRFTISRDNAKNTVYLQMNSLKPEDTAVYYCATSRYFNTGRGYWGQGTQVTVSS”, the “polyreactivity (PSR sort gate)” value is reported as “low polyreactivity”.

For “QVQLVESGGGLVQAGGSLRLSCAASGSIFEINAMGWYRQAPGKERELVAAITGSGGSTHYADSVKGRFTISRDTAKNTVYLQMNSLKPEDTAVYYCAADICYFTKYGYWGQGTQVTVSS”, the “polyreactivity (PSR sort gate)” value was “low polyreactivity”.

With “QVQLVESGGGLVQAGGSLRLSCAASGSIFEINAMGWYRQGPGKERELVAAITGSGGSTHYADSVKGRFTISRDNAKNTDYLQMNSLKPEDTAVYYGAAVPRYQDGYWGQGTQVTVSS” the “polyreactivity (PSR sort gate)” value was “low polyreactivity”.

With “QVQLVESGGGLVQAGGSLRLSCAASGSIFEPNAMGWYRQAPGKERELVAAISWNDGDTYYADSVKGRFTISRDNAKNTVYLQMNCLKPEDTAVYYCAAETGYAFDYWGQGTQVTVSS” the “polyreactivity (PSR sort gate)” value was “low polyreactivity”.

In the case of “QVQLVESGGGLVQAGGSLRLSCAASGSIFEPNAMGWYSQAPGKERELVAAISWNDGDTYYADSVKGRFTISRDNAKNTVYLQMNSLKPEDTAVYYCAAETGYAFDYWGQGTQVTVSS”, the “polyreactivity (PSR sort gate)” value is reported as “low polyreactivity”.

In the case of “QVQLVESGGGLVQAGGSLRLSCAASGSIFEPYAMGLYRQAPGKERELVAAIRWSGGSTYYADSVKGRFTISRDNAKNTVYLQMNSLKPEDTAVYYCAKYFPAGYYYWGQGTQVTVSS”, the “polyreactivity (PSR sort gate)” value is reported as “low polyreactivity”.

With “QVQLVESGGGLVQAGGSLRLSCAASGSIFERYDMGWYRQAPGKERELVAAITSAGITYYADSVKGRFTISRDNAKNTVYLQMNSLKPEDTAVYYCAAQGRRGAPYRHVIEGDYWGQGTQVTVSS” the “polyreactivity (PSR sort gate)” value was “low polyreactivity”.

For “QVQLVESGGGLVQAGGSLRLSCAASGSIFESNAMGWYRQAPGKEREFVAAIDWGDGSTSYADSVKGRFTISRDNAKNTVYLQMNSLKPEDTAVYYCAARSVFDLVYYNLIFDYWGQGTQVTVSS”, the “polyreactivity (PSR sort gate)” value was “high polyreactivity”.

For “QVQLVESGGGLVQAGGSLRLSCAASGSIFESYAMGWYRQAPGKERELVAAITKRGGSTYYADSVKGRFTISRDNAKYTVYLQMNSLKPEDTAVYYCNARWPGIGPIYDYCGQGTQVTVSS”, the “polyreactivity (PSR sort gate)” value was “low polyreactivity”.

With “QVQLVESGGGLVQAGGSLRLSCAASGSIFEVDALGWYRQAPGKERELVAAITSSDITYYADSVKGRFTISRDHAKTTVYLQMNSLKPEDTAVYYCNGEPPYRVKRSDYWGQGTQVTVSS” the “polyreactivity (PSR sort gate)” value was “low polyreactivity”.

In the case of “QVQLVESGGGLVQAGGSLRLSCAASGSIFEVNAMGWYRQAPGKERELVATITYSGGSTYYSDSVKGRFTISRDNAKNTVYLQMHSLKPEDTAVFYCAAPIGDVYVGNGYDSWGQGTQVTVSS”, the “polyreactivity (PSR sort gate)” value is reported as “low polyreactivity”.

In the case of “QVQLVESGGGLVQAGGSLRLSCAASGSIFEWYAMGWYRQAPGKASALVAAISSGGRTYYADSVKGRFTISRDNAKNTVYLQMISLKPEDTAVYYCAARDVDHVGGSKYYYWGLGTQVTVSS”, the “polyreactivity (PSR sort gate)” value is reported as “high polyreactivity”.

In the case of “QVQLVESGGGLVQAGGSLRLSCAASGSIFEYNAMGWYRQAPGKERELVAAISRSGGSTYYADSVKGRFTISRDNAKNTVYLQMISLKPEDTAVYYCAARSPRYYRDFGYWGQGTQVTVSS”, the “polyreactivity (PSR sort gate)” value is reported as “high polyreactivity”.

With “QVQLVESGGGLVQAGGSLRLSCAASGSIFEYNGMGWYRQAPGKERELVAAITTTGTTDYADSVKGRFTISRDNAKNTVYLEMNSLIPEDTSVFYCAADYTYYYKGEYEYWGQGTQVTVSS” the “polyreactivity (PSR sort gate)” value was “low polyreactivity”.

With “QVQLVESGGGLVQAGGSLRLSCAASGSIFEYYAMGWYRQAPGKERELVADITTIGGSTYYADSVKGRFTISRDNAKNTVYLQMNSLKPEDTAVYYCAADYFTTFYWYDYWGQGTQVTVSS” the “polyreactivity (PSR sort gate)” value was “high polyreactivity”.

With “QVQLVESGGGLVQAGGSLRLSCAASGSIFFAYAMGWYRQAPGKERELVAAITSGVSTNYADSVKGRFTISRDNAKNTVYLQMNSLKPEDTAVYYCNADFDYGFDAGLAVQVVIHDYWGQGTQVTVSS” the “polyreactivity (PSR sort gate)” value was “low polyreactivity”.

For “QVQLVESGGGLVQAGGSLRLSCAASGSIFFDYAMGGYRQAPGKERELVAAINSGGTTNYADSVKGRFTISRDNAKNTVYLQMKQPETGRYRGLLLQRFPGYLRWYRWFDYWGQGTQVTVSS”, the “polyreactivity (PSR sort gate)” value was “low polyreactivity”.

For “QVQLVESGGGLVQAGGSLRLSCAASGSIFFEYAMGWYRQAPGKERALVASINRGGGSTYYADSVKGRFTISRDYAKNTVYLQMNILIPEDTAVYYCAAQWKYRQYYLDYYWGQGTQVTVSS”, the “polyreactivity (PSR sort gate)” value was “low polyreactivity”.

For “QVQLVESGGGLVQAGGSLRLSCAASGSIFFFNAMGWYRQAPGKERELVAAISESGTSTYYADSVKGRFTISRDNAKNTVFLQMNSLKPEDTAVFYCKVVFRYAYGVYYTPEFYYWGQGTQVTVSS”, the “polyreactivity (PSR sort gate)” value was “low polyreactivity”.

With “QVQLVESGGGLVQAGGSLRLSCAASGSIFFFYDMGWYRKATGKERELVAAISSSGTRTYYADSVKGRFTISRDNAKNTVYLQMNSLKPEDTAVYYCAVVYPSENYYRYDYWGQVTQVTVSS” the “polyreactivity (PSR sort gate)” value was “high polyreactivity”.

For “QVQLVESGGGLVQAGGSLRLSCAASGSIFFGNAMGWYRQAPGKERELVAAIDSGGGTNYADSVKGRFTISRDNAKNTVYLQMNSLKPEDTAVYYCAREQGVNRNHDYWGQGTQVTVSS”, the “polyreactivity (PSR sort gate)” value was “low polyreactivity”.

In the case of “QVQLVESGGGLVQAGGSLRLSCAASGSIFFGYAMGWYRQAPGKERELVATITSSGGITYYADSVKGRFTISRDNAKNTVYLQMNSLKPEDTAVYYCATYYYYTYDYWGQGTQVTVSS”, the “polyreactivity (PSR sort gate)” value is reported as “low polyreactivity”.

In the case of “QVQLVESGGGLVQAGGSLRLSCAASGSIFFGYGMGWYRQAPGKERELVATITTSGGTYYADAVKGRFTISRDNAKNTVYLQMNSLKPEDTAVYYCAATAAALDGNTIMYYWGQGTQVTVSS”, the “polyreactivity (PSR sort gate)” value is reported as “low polyreactivity”.

With “QVQLVESGGGLVQAGGSLRLSCAASGSIFFINAMGWYRQAPGKERELVAAIRRGGSTYADSVKGRFTISRDNAKNTVYLQMNSLKPEDTAVYYCAARITWGATAKSRYSYLYDYWGQGTQVTVSS” the “polyreactivity (PSR sort gate)” value was “high polyreactivity”.

In the case of “QVQLVESGGGLVQAGGSLRLSCAASGSIFFIYAMGLYRQAPGKERELVAGITSRGITNYADSVKGRFTISRDNAKNTVYLQMNSLKPEDTAVYYCAAGDENYTDRYDYWGQGTQVTVSS”, the “polyreactivity (PSR sort gate)” value is reported as “low polyreactivity”.

For “QVQLVESGGGLVQAGGSLRLSCAASGSIFFLYAMGWYRQAPGKERELVAAISRDGRTNYADSVKGRFTISRDNAKYTVYLQMKSLKPEDTAVYYGAKDGNHPGAVGYGYWGQGTQVTVSS”, the “polyreactivity (PSR sort gate)” value was “low polyreactivity”.

For “QVQLVESGGGLVQAGGSLRLSCAASGSIFFPNPLGWYRQAPGKERELVDAISWSGDSSYADSVKGRFTISRDNAKNTVYLQMNSLKPEDTAVYYCAAVYLWWSYEFDYWGQGTQVTVSS”, the “polyreactivity (PSR sort gate)” value was “low polyreactivity”.
